Assay results published in US20100278929A1 (MEDLMMUNE, published 2010).
Positions count from the first letter of the chain named. In names and notes the source's numbering stands.

B1: palivizumab (antibody, V domains shown)
VH: QVTLRESGPALVKPTQTLTLTCTFSGFSLSTSGMSVGWIRQPPGKALEWLADIWWDDKKDYNPSLKSRLTISKDTSKNQVVLKVTNMDPADTATYYCARSMITNWYFDVWGAGTTVTVSS
VL: DIQMTQSPSTLSASVGDRVTITCKCQLSVGYMHWYQQKPGKAPKLLIYDTSKLASGVPSRFSGSGSGTEFTLTISSLQPDDFATYYCFQGSGYPFTFGGGTKLEIK
notes: also called SYNAGIS
B2: A4B4L1FR-S28R (motavizumab) (antibody, V domains shown)
VH: B1 VH with S32A, D60H, S67D, S100D, T103F, W105F, A112Q
VL: B1 VL with K24S, C25A, Q26S, L27S, S28R, L103V

Tests used:
[1] = target: T1, RSV (Long strain) F protein on infectious virus (respiratory syncytial virus (Long …, UniProt P12568 26-574)); experiment: cell-based or functional assay
[2] = target: T2, recombinantly produced, C-terminally truncated RSV (A2 strain) F protein (respiratory syncytial virus (A2 strain), UniProt P03420 26-524); experiment: SPR, BIAcore 3000; F protein coupled at low density to CM5 chip, mAb injected at 100-0.2 nM; 1:1 Langmuir fit
T2 construct: extracellular domain; also called RSV F protein; truncated F protein
Method: (§1) Purified F protein was covalently coupled to an N-hydroxysuccinimide-N-ethyl-N′-[3-diethylaminopropyl]-carbodiimide (EDC/NHS) activated CM5 sensor chip at a low protein density according to the manufacturer's protocol; unreacted active ester groups were blocked with 1 M ethanolamine. For reference purposes, a blank surface, containing no antigen, was prepared under identical immobilization conditions.
(§2) For kinetic measurements, a serial 2-fold dilution series of each mAb from 100 nm-0.2 nm, made in instrument buffer (HBS/Tween-20, BIAcore, Inc.), was injected over the F-protein and reference cell surfaces, which are connected in series. In each analysis, following the dissociation phase, the remaining bound antibody was removed from the sensor chip by passing a brief pulse of 100 mM HCl over the surface. Once an entire data set was collected, the resulting binding curves were globally fitted to a 1:1 Langmuir binding model using BIAevaluation software (BIAcore, Inc., Piscataway, N.J.). This algorithm calculates both the association rate (kₒₙ) and the dissociation rate (koff), from which the apparent equilibrium binding constant, KD, for each antibody was deduced as the ratio of the two rate constants, koff/kₒₙ.

[3] = target: T2, recombinantly produced, C-terminally …; experiment: SPR, BIAcore 3000; F protein coupled at low density to CM5 chip; KD = koff/kon
Method: as §1, §2

[4] = target: T1, RSV (Long strain) F protein on …; experiment: cell-based or functional assay; remark: listed apart in the source
[5] = target: T1, RSV (Long strain) F protein on …; experiment: cell-based or functional assay; remark: listed apart in the source
[6] = target: T1, RSV (Long strain) F protein on …; experiment: cell-based or functional assay; remark: listed apart in the source

T2 sequence (P03420 26-109, chain 1 of 2): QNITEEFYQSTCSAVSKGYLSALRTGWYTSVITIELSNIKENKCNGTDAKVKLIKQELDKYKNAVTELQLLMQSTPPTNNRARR
T2 sequence (P03420 137-524, chain 2 of 2): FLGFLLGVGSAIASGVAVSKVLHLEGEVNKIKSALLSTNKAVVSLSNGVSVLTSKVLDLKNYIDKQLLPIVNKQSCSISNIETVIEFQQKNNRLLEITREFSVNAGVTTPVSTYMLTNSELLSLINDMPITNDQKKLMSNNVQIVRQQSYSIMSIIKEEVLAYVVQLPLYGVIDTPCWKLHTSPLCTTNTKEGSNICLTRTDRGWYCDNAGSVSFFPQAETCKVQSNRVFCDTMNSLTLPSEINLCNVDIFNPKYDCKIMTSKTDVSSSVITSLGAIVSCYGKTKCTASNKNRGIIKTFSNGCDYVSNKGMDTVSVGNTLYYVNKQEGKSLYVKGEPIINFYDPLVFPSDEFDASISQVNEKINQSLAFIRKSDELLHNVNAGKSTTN

Binder	IC50 (read off the curve) [1] [µg/mL]	koff [2] [s⁻¹]	kon [2] [M⁻¹ s⁻¹]	Kd [3] [nM]	average IC50, RSV microneutralization assay [4] [ng/mL]	Mean IC50 (Control), RSV microneutralization [5] [µg/mL]	Mean IC50 (Curve), RSV microneutralization [5] [µg/mL]	IC50 (read off the curve); sample: Cyno-69 BAL [6] [ng/mL]	IC50 (read off the curve); sample: purified MEDI-524 control [6] [ng/mL]	fold potency against palivizumab, RSV microneutralization assay [4] [fold]
B1	~0.4	0.000395	114000	3.46	315	0.535	0.453	–	–	–
B2	~0.02	–	–	–	18	–	–	~10	~7	~18
